The record followed here is paper PMC8432889.

This experiment has as its target β-PIX (endogenous, Hap1 cells) (human (endogenous in Hap1)) (UniProt Q14155).
Sequence of UniProt Q14155 (Q14155 whole entry): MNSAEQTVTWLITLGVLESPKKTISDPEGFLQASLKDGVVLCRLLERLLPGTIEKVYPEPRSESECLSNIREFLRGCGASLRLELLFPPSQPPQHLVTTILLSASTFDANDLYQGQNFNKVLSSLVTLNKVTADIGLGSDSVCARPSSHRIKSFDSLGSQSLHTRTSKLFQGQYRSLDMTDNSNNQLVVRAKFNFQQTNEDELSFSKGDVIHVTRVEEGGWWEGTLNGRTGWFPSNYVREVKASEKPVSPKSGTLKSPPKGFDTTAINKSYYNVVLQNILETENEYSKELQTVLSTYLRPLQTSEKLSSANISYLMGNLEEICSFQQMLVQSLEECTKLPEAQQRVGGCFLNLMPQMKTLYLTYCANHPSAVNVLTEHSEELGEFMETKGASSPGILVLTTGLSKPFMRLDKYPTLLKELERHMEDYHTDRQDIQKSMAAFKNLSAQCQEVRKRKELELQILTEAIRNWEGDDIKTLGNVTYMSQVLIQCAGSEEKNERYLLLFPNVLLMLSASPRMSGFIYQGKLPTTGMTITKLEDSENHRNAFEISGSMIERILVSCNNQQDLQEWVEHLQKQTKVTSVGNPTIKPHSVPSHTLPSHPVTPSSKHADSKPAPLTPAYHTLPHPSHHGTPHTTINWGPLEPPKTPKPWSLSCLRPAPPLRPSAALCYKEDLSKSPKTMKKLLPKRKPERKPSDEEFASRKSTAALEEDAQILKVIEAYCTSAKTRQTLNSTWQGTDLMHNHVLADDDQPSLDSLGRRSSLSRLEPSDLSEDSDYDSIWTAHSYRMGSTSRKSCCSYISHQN

Take “Emerald-tagged PAK1, full length (from UniProt Q13153 1-545) (enzyme)”: the Salmonella invasion into WT Hap1 cells treated with the inhibitor peptide PAK18 (PAK residues 187–203; 5 μM), percent impeded; negative control peptide had no effect stood at 55%.
